# Experimental data from patent US20230302100.
# Where a chain is given by its changes, count along the chain named. Where “and” joins values, the source holds several entries; their conditions need not be identical. Equal values may be shown once.
# B1: IdeS BX1001865 (protein)
# chain: DSFSANQEIRYSEVTPYHVTSVWTKGVTPPANFTQGEDVFHAPYVANQGWYDITKTFNGKDDLLCGAATAGNMLHWWFDQNKDQIKRYLEEHPEKQKINFNGEQMFDVKEAIDTKNHQLDSKLFEYFKEKAFPYLSTKHLGVFPDHVIDMFINGYRLSLTNHGPTPVKEGSKDPRGGIFDAVFTRGDQSKLLTSRHDFKEKNLKEISDLIKKELTEGKALGLSHTYANVRINHVINLWGADFDSNGNLKAIYVTDSDSNASIGMKKYFVGVNSAGKVAISAKEIKEDNIGAQVLGLFTLSTGQDSWNQTN
# B2: pCART124 (IdeS with N terminal methionine and histidine tag) (protein)
# chain: MDSFSANQEIRYSEVTPYHVTSVWTKGVTPPANFTQGEDVFHAPYVANQGWYDITKTFNGKDDLLCGAATAGNMLHWWFDQNKDQIKRYLEEHPEKQKINFNGEQMFDVKEAIDTKNHQLDSKLFEYFKEKAFPYLSTKHLGVFPDHVIDMFINGYRLSLTNHGPTPVKEGSKDPRGGIFDAVFTRGDQSKLLTSRHDFKEKNLKEISDLIKKELTEGKALGLSHTYANVRINHVINLWGADFDSNGNLKAIYVTDSDSNASIGMKKYFVGVNSAGKVAISAKEIKEDNIGAQVLGLFTLSTGQDSWNQTNGGGHHHHHH
# B3: pCART229 (protein)
# chain: MDDYQRNATEAYAKEVPHQITSVWTKGVTPPEQFTQGEDVIHAPYLAHQGWYDITKAFDGKDNLLCGAATAGNMLHWWFDQNKTEIEAYLSKHPEKQKIIFRNQELFDLKAAIDTKDSQTNSQLFNYFRDKAFPNLSARQLGVMPDLVLDMFINGYYLNVFKTQSTDVNRPYQDKDKRGGIFDAVFTRGNQTTLLTARHDLKNKGLNDISTIIKQELTEGRALALSHTYANVSISHVINLWGADFNAEGNLEAIYVTDSDANASIGMKKYFVGINAHGHVAISAKKIEGENIGAQVLGLFTLSSGKDIWQKLSGGGHHHHHH
# B4: pCART144 (IdeZ with N terminal methionine and histidine tag) (protein)
# chain: MDDYQRNATEAYAKEVPHQITSVWTKGVTPLTPEQFRYNNEDVIHAPYLAHQGWYDITKAFDGKDNLLCGAATAGNMLHWWFDQNKTEIEAYLSKHPEKQKIIFNNQELFDLKAAIDTKDSQTNSQLFNYFRDKAFPNLSARQLGVMPDLVLDMFINGYYLNVFKTQSTDVNRPYQDKDKRGGIFDAVFTRGDQTTLLTARHDLKNKGLNDISTIIKQELTEGRALALSHTYANVSISHVINLWGADFNAEGNLEAIYVTDSDANASIGMKKYFVGINAHGHVAISAKKIEGENIGAQVLGLFTLSSGKDIWQKLSGGGHHHHHH
# B5: pCART202 (protein)
# chain: MDDYQRNATEAYAKEVPHQITSVWTKGVTPLTPEQFTQGEDVIHAPYLAHQGWYDITKAFDGKDNLLCGAATAGNMLHWWFDQNKTEIEAYLSKHPEKQKIIFNNQELFDLKAAIDTKDSQTNSQLFNYFRDKAFPNLSARQLGVMPDLVLDMFINGYYLNVFKTQSTDVNRPYQDKDKRGGIFDAVFTRGDQTTLLTARHDLKNKGLNDISTIIKQELTEGRALALSHTYANVSISHVINLWGADFNAEGNLEAIYVTDSDANASIGMKKYFVGINAHGHVAISAKKIEGENIGAQVLGLFTLSSGKDIWQKLSGGGHHHHHH
# B6: pCART203 (protein)
# chain: B3 chain with R102N, N190D
# B7: pCART204 (protein)
# chain: MDDYQRNATEAYAKEVPHQITSVWTKGVTPPEQFRYNNEDVIHAPYLAHQGWYDITKAFDGKDNLLCGAATAGNMLHWWFDQNKTEIEAYLSKHPEKQKIIFNNQELFDLKAAIDTKDSQTNSQLFNYFRDKAFPNLSARQLGVMPDLVLDMFINGYYLNVFKTQSTDVNRPYQDKDKRGGIFDAVFTRGDQTTLLTARHDLKNKGLNDISTIIKQELTEGRALALSHTYANVSISHVINLWGADFNAEGNLEAIYVTDSDANASIGMKKYFVGINAHGHVAISAKKIEGENIGAQVLGLFTLSSGKDIWQKLSGGGHHHHHH
# B8: pCART208 (protein)
# chain: B3 chain with F101I, N190D
# B9: pCART210 (protein)
# chain: B3 chain with H48N, A111E, D114R, N126E, N135Y, N169K, Q215E, E219K, A276K, S313N
# B10: pCART206 (protein)
# chain: B3 chain with F101I, R102N, N190D
# Molecular target: IVIg (Octagam)
protein,measurement,value
B1,"Conc. of enzyme for 1st IgG heavy chain cleavage (IgG to scIgG), SDS-PAGE",1900 ng/mL
same,"Conc. of enzyme for 2nd IgG heavy chain cleavage (scIgG to F(ab')2), SDS-PAGE",6000 ng/mL and 7500 ng/mL
same,"IVIg cleavage, SDS-PAGE titration: enzyme concentration at which cleavage starts","IdeS, which starts the cleavage at 0.9 ng/ml (lane 6) and has a dominating scIgG band at 1.9 ng/ml (lane 5)"
same,"IVIg cleavage, SDS-PAGE titration: enzyme concentration giving a dominating scIgG band","IdeS, which starts the cleavage at 0.9 ng/ml (lane 6) and has a dominating scIgG band at 1.9 ng/ml (lane 5)"
same,"IVIg cleavage, SDS-PAGE titration: enzyme concentration giving mainly scIgG",IdeS (BX1001865) has generated mainly scIgG (arrow 2) at a concentration of 1.9 ng/ml (lane 5)
same,"IVIg cleavage, SDS-PAGE titration: share of scIgG at 0.94 ng/ml enzyme",the same concentration of IdeS results in less than 50% scIgG (lane 6)
B2,"Conc. of enzyme for 1st IgG heavy chain cleavage (IgG to scIgG), SDS-PAGE",1900 ng/mL
same,"Conc. of enzyme for 2nd IgG heavy chain cleavage (scIgG to F(ab')2), SDS-PAGE",6000 ng/mL and 7500 ng/mL
same,"IVIg cleavage, SDS-PAGE titration: enzyme concentration at which cleavage starts","IdeS, which starts the cleavage at 0.9 ng/ml (lane 6) and has a dominating scIgG band at 1.9 ng/ml (lane 5)"
same,"IVIg cleavage, SDS-PAGE titration: enzyme concentration giving a dominating scIgG band","IdeS, which starts the cleavage at 0.9 ng/ml (lane 6) and has a dominating scIgG band at 1.9 ng/ml (lane 5)"
same,"IVIg cleavage, SDS-PAGE titration: share of scIgG at 0.94 ng/ml enzyme",the same concentration of IdeS results in less than 50% scIgG (lane 6)
B3,"Conc. of enzyme for 1st IgG heavy chain cleavage (IgG to scIgG), SDS-PAGE",1900 ng/mL
same,"Conc. of enzyme for 2nd IgG heavy chain cleavage (scIgG to F(ab')2), SDS-PAGE",7500 ng/mL
B4,"IVIg cleavage of the 2nd heavy chain, SDS-PAGE titration",pCART144 (IdeZ) is worse in cleavage of the 2nd heavy chain compared to IdeS (BX1001865 and pCART124)
same,"IVIg cleavage, SDS-PAGE titration",shows more effective cleavage at the 1st IgG heavy chain (lane 6) compared to IdeS (BX1001865 and pCART124)
B5,"IVIg cleavage, SDS-PAGE titration: enzyme concentration giving an intense scIgG band","Concentrations of 0.94 ng/ml (lane 6) for pCART202, pCART203 and pCART204 result in an intense band of scIgG (arrow 2), with most of the IgG single cleaved"
B6,"IVIg cleavage, SDS-PAGE titration","pCART203 shows a capacity comparable to IdeS (BX1001865 and pCART124) at the 2nd cleavage site (lane 2, 3 and 4) and a higher cleavage efficacy than both IdeS and IdeZ (pCART144) at the 1st cleavage site (lane 7)"
same,"IVIg cleavage, SDS-PAGE titration: enzyme concentration at which cleavage is seen",Enzyme pCART203 demonstrates IgG cleavage at 0.5 ng/ml (lane 7)
same,"IVIg cleavage, SDS-PAGE titration: enzyme concentration giving an intense scIgG band","Concentrations of 0.94 ng/ml (lane 6) for pCART202, pCART203 and pCART204 result in an intense band of scIgG (arrow 2), with most of the IgG single cleaved"
same,"IVIg cleavage, SDS-PAGE titration: enzyme concentration giving mainly scIgG",has generated mainly scIgG (arrow 2) at about 0.9 ng/ml (lane 6)
same,"IVIg cleavage, SDS-PAGE titration: fold efficacy over IdeS",This corresponds to a 2 fold increased efficacy compared to IdeS
B7,"IVIg cleavage, SDS-PAGE titration: enzyme concentration giving an intense scIgG band","Concentrations of 0.94 ng/ml (lane 6) for pCART202, pCART203 and pCART204 result in an intense band of scIgG (arrow 2), with most of the IgG single cleaved"
B8,"IVIg cleavage of the 1st heavy chain, SDS-PAGE titration","pCART207, pCART208 and pCART210 all show increased efficacy compared to IdeS (BX1001865) in the cleavage of the 1st IgG heavy chain (lane 6)"
same,"IVIg cleavage of the 1st heavy chain, SDS-PAGE titration: fold efficacy over IdeS",In the case of pCART208 this is approximately a 4 fold increase in cleavage efficacy of the 1st heavy chain
same,"IVIg cleavage of the 2nd heavy chain, SDS-PAGE titration: enzyme concentration giving a dominating F(ab')2 band","pCART208 shows an improved cleavage efficacy, resulting in a dominating F(ab')2 band (arrow 3) at 1.9 ng/ml (lane 5), whereas IdeS (BX1001865) has only generated scIgG (arrow 2) at the same concentration"
B9,"IVIg cleavage of the 1st heavy chain, SDS-PAGE titration","pCART207, pCART208 and pCART210 all show increased efficacy compared to IdeS (BX1001865) in the cleavage of the 1st IgG heavy chain (lane 6)"
B10,"IVIg cleavage in the presence of anti-IdeS neutralizing antibodies, SDS-PAGE titration",A similar result was obtained for pCART206 (data not shown)
